# Measured values as given in patent publication US9823254B2, “Reversible chemoenzymatic labeling of native and fusion carrier protein motifs” (The Regents of the University of California, priority 2012, dated 2017).
# Several values for one entry are separate records, joined by “and”; a condition that tells them apart may be missing. Identical values can stand only once.
# T1: crypto-FITC-YbbR (3) (Bacillus subtilis, UniProt O34659)
# T1 construct: made in house; host or cells: enzymatic labelling of FITC-ybbR peptide with Sfp and rhodamine-CoA
# T1 sequence (O34659 whole entry, looked up): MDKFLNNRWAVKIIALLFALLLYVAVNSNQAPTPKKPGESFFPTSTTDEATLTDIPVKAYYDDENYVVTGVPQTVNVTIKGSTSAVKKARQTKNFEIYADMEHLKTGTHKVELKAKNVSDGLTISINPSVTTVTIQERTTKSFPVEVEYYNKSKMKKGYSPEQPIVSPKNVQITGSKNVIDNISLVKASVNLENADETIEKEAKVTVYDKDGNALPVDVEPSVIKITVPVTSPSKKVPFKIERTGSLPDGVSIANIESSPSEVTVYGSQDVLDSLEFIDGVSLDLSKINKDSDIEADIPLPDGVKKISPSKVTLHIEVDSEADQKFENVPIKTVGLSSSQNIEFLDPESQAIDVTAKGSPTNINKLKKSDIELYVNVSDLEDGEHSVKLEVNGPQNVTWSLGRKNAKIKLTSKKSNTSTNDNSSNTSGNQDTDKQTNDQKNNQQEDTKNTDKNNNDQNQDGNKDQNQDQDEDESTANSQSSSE
# T2: V. cholerae VibB (Vibrio cholerae serotype O1, UniProt P0C6D3)
# T2 sequence (P0C6D3 whole entry, looked up): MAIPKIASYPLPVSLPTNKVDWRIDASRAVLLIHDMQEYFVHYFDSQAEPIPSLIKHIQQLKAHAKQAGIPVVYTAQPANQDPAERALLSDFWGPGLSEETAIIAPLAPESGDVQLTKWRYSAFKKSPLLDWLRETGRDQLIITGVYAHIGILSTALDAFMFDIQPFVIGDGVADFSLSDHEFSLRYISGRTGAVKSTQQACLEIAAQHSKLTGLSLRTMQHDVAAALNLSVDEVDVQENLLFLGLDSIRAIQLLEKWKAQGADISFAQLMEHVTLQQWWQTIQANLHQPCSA
# T3: S. coelicolor ActACP (Streptomyces coelicolor, UniProt Q02054)
# T3 construct: made in house
# T3 sequence (Q02054 whole entry, looked up): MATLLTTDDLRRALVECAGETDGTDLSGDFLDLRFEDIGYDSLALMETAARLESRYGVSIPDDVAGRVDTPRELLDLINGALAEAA
# T4: ybbR (Bacillus subtilis, UniProt O34659)
# T4 sequence (O34659 whole entry, looked up): T1 sequence (O34659 whole entry, looked up)
# B1: CyAcpH: acyl carrier protein hydrolase homolog from Cyanothece PCC 7822, YP13 003888700.1 (protein)
# chain: MNYLAHLFLADPTPESQIGNLLGDFVKGKIDNLSSIYSPEIIRGVKTHQKIDIFTDHHPIFKTSKQRLNQNHRKFAGVIIDIYYDHFLAKNWLIYSEQDLDEFVANTYQMLEQHQLLLPEKLQKALPCMIQEDWLGSYRYFEGIDQTFSRLSRRIKRTNNIAFALEDLIQNYSQLEEDFLQFFPQLIDYVNLA
# modifications: Cyanothece sp. PCC 7822
# B2: Sfp: phosphopantetheinyl transferase (PPTase) from Bacillus subtilis (protein, UniProt P39135 1-224, looked up)
# 4'-phosphopantetheinyl …: MKIYGIYMDRPLSQEENERFMSFISPEKREKCRRFYHKEDAHRTLLGDVLVRSVISRQYQLDKSDIRFSTQEYGKPCIPDLPDAHFNISHSGRWVICAFDSQPIGIDIEKTKPISLEIAKRFFSKTEYSDLLAKDKDEQTDYFYHLWSMKESFIKQEGKGLSLPLDSFSVRLHQDGQVSIELPDSHSPCYIKTYEVDPGYKMAVCAAHPDFPEDITMVSYEELL
# Key:
# [1] = system: A. orientalis CepK; test: AcpH qualitative CP activity, gel-based, crypto-CP; type: biochemical; settings: NRPS; crypto-CP (coumarin-PPant), overnight, 37° C., 1 μM AcpH
# [2] = target: T1, crypto-FITC-YbbR (3); test: FRET-quench microwell AcpH kinetics; type: biochemical; settings: 37° C., FRET-quench microwell plate assay, [AcpH] 1 μm
# Method: Preparation of rhodamine-labeled FITC-ybbR proceeded via reaction of 200 μM FITC-ybbR with 200 μM rhodamine WT-CoA synthesized as described previously^33 with 1 μM Sfp in 50 mM HEPES pH 7.5 and 10 mM MgCl2 for 2 hours at 37° C.
# Rhodamine-labeled FITC-Ybbr as well as standard 1:1 apo-FITC-ybbR:rhodamine-CoA was subjected to an 11-point serial dilution in 50 mM TrisCl pH 8.0 to achieve final concentrations of 400-0.4 μM. […] Total reaction volumes were 50 μL and utilized a 96-well Costar 3694 plate (Corning, Lowell, Mass.). Following mixing, reactions were centrifuged for 2 minutes at 1500 rpm, and incubated at 37° C. over 4 hours in a HTS 7000 plus Bioassay Reader (Perkin Elmer, Waltham, Mass.) in kinetic mode. Comparison of enzyme reactions to buffer blank and 1:1 apo-FITC-ybbR:rhodamine-CoA standard allowed calculation of product formation and determination of Michaelis-Menten kinetics using GraphPad Prism.
# [3] = target: P. syringae SyrB1 (Pseudomonas syringae pv. syringae, UniProt Q52400); test: AcpH qualitative CP activity, gel-based, crypto-CP; type: biochemical; settings: NRPS; crypto-CP (coumarin-PPant), overnight, 37° C., 1 μM AcpH
# [4] = target: T2, V. cholerae VibB; settings: NRPS; crypto-CP (coumarin-PPant), overnight, 37° C., 1 μM AcpH
# [5] = target: T5, L majuscula JamC (Moorena producens, UniProt Q6E7K7); test: AcpH qualitative CP activity, gel-based, crypto-CP; type: biochemical; settings: PKS; crypto-CP (coumarin-PPant), overnight, 37° C., 1 μM AcpH
# T5 construct: made in house
# [6] = system: G. fujikuroi Pks4; test: AcpH qualitative CP activity, gel-based, crypto-CP; type: biochemical; settings: PKS; crypto-CP (coumarin-PPant), overnight, 37° C., 1 μM AcpH
# [7] = system: S. oneidensis AcpP; test: AcpH qualitative CP activity, holo-SoAcpP, Urea-PAGE; type: biochemical; settings: FAS, Urea-PAGE gel-shift, shorter timescale
# [8] = system: P. agglomerans AdmI; test: AcpH qualitative CP activity, gel-based, crypto-CP; type: biochemical; settings: PKS; crypto-CP (coumarin-PPant), overnight, 37° C., 1 μM AcpH
# [9] = target: T3, S. coelicolor ActACP; test: AcpH qualitative CP activity, gel-based, crypto-CP; type: biochemical; settings: PKS; crypto-CP (coumarin-PPant), overnight, 37° C., 1 μM AcpH
# [10] = system: L majuscula JamF; test: AcpH qualitative CP activity, gel-based, crypto-CP; type: biochemical; settings: PKS; crypto-CP (coumarin-PPant), overnight, 37° C., 1 μM AcpH
# [11] = system: M. tuberculosis MAS; test: AcpH qualitative CP activity, gel-based, crypto-CP; type: biochemical; settings: FAS (FAS/PKS hybrid), overnight, 37° C., 1 μM AcpH
# [12] = target: P. aeruginosa AcpP (Pseudomonas aeruginosa, UniProt O54439); settings: FAS; crypto-CP (coumarin-PPant), overnight, 37° C., 1 μM AcpH
# Method: (§1) Unless otherwise noted, all coumarin-PPant labeling proceeded as follows: apo-carrier protein or peptide at 50-200 μM were labeled in 50 mM Na-HEPES pH 7.5, 10 mM MgCl2, 8 mM ATP, 0.1 μM MBP-CoaA/D/E, 0.1 μM native Sfp, and 1.1 equivalents of coumarin-pantetheine at 37° C. overnight. Crypto-protein samples were repurified using standard IMAC techniques in pH 8 lysis buffer with Ni-NTA resin, and spin-concentrated/buffer exchanged to remove imidazole and concentrate with 0.5 mL 3 kDa MWCO cellulose filters. Crypto-peptide samples were purified with HPLC, lyophilized, and redissolved in 50 mM TrisCl pH 8.0 prior to analysis.
# (§2) Following AcpH treatment, an equal volume of 2×SDS-PAGE loading dye was added to crypto-carrier proteins samples and heated 5 min at 90° C., and run on 12% or 15% SDS-PAGE. Gels were fixed in 50/40/10% water/methanol/acetic acid for 30 minutes, and washed with water three times before UV imaging. Holo-carrier protein reactions were analyzed with Urea-PAGE as previously described.^6 All protein gels were Coomassie stained for evaluating total protein. Crypto-peptides were evaluated on Urea-PAGE, and were imaged immediately after running with no gel fixing.
# [13] = target: E. coli AcpP (Escherichia coli, UniProt P0A6A8); settings: FAS; crypto-CP (coumarin-PPant), overnight, 37° C., 1 μM AcpH
# Method: as §1, §2
# [14] = system: P. fluorescens PltL; test: AcpH qualitative CP activity, gel-based, crypto-CP; type: biochemical; settings: NRPS; crypto-CP (coumarin-PPant), overnight, 37° C., 1 μM AcpH
# [15] = target: holo-ACP (E. coli) (Escherichia coli, UniProt P0A6A8); settings: 37° C., HPLC detection, [AcpH] 1 (CyAcpH 0.005) μm
# Method: Holo-E. coli AcpP was prepared as a serial dilution in 50 mM TrisCl, 250 mM NaCl, 30 mM MgCl2, and 2 mM MnCl2. […] CyAcpH was prepared at 10 nM in the same AcpH buffer. […] Reactions were transferred to prewarmed shaker at 37° C. and were quenched with 100 mM EDTA after 10 minutes. Samples were centrifuged and evaluated at 210 nm with HPLC using an acetonitrile gradient to determine apo-AcpP product formation. Michaelis-Menten kinetics were calculated using GraphPad Prism (GraphPad Software, La Jolla, Calif.).
# E. coli holo-ACP was diluted into 50 mM TrisCl pH 8.0, 250 mM NaCl, 10% glycerol, 30 mM MgCl2 and 2 mM MnCl2 buffer to a concentration of 800 μM. […] AcpH was diluted from MOPS lysis buffer into 50 mM TrisCl pH 8.0, 250 mM NaCl, 10% glycerol and added to an equal volume of the holo-ACP serial dilution to initiate the reaction. Reaction tubes were transferred to a pre-warmed rack at 37° C. and shaken for the duration of the experiment. […] All samples were frozen at -80° C. until evaluated by HPLC.
# Kinetics samples were mixed briefly with finger flicking, and centrifuged at 13000 rpm for 10 minutes at room temperature prior to transferring contents into HPLC vials. 20 μL of each reaction time point was injected on an Agilent 1100 series HPLC with column (Burdick & Jackson OD5 #9575, 25 cm×4.6 mm ID) using an acetonitrile/water gradient. Both water and acetonitrile contained 0.05% TFA. Method gradient for each injection: 0-5 min with 10% acetonitrile, 5-30 min with 10-100% acetonitrile, 30-35 min with 100% acetonitrile, 35-37 min with 100-10% acetonitrile, 37-40 min with 10% acetonitrile. HPLC-grade solvents (J. T. Baker, Phillipsburg, N.J.) were used exclusively. Apo- & holo-ACP protein standards were used to validate the retention times identified using 210 nm UV light at approximately 21 and 19 minutes, respectively. Peak integration was performed for all samples, and substrate turnover was calculated from the ratio of apo- to holo-ACP present in the HPLC trace and the known concentration of total ACP in reaction samples. Calculated rates for AcpH versus substrate concentration were obtained through Excel data analysis and graphed in Prism GraphPad using the “Michaelis-Menten” function for enzyme kinetics, with a zero data point added for substrate concentration of 0 μM*min-1 and 0 μM substrate for AcpH graphs.
# [16] = system: P. agglomerans AdmA; test: AcpH qualitative CP activity, gel-based, crypto-CP; type: biochemical; settings: NRPS; crypto-CP (coumarin-PPant), overnight, 37° C., 1 μM AcpH
# [17] = system: YbbR13; test: AcpH activity with modified ybbR peptide, qualitative; type: biochemical; settings: for AcpH activity with modified ybbR peptide: coumarin-PPant labeled
# [18] = system: P. falciparum ACP; test: AcpH qualitative CP activity, gel-based, crypto-CP; type: biochemical; settings: FAS; crypto-CP (coumarin-PPant), overnight, 37° C., 1 μM AcpH
# [19] = target: M. tuberculosis AcpM (Mycobacterium tuberculosis, UniProt P9WQF3); settings: FAS; crypto-CP (coumarin-PPant), overnight, 37° C., 1 μM AcpH
# [20] = target: T6, A. parasiticus PksA (Aspergillus parasiticus, UniProt Q12053); test: AcpH qualitative CP activity, gel-based, crypto-CP; type: biochemical; settings: PKS; crypto-CP (coumarin-PPant), overnight, 37° C., 1 μM AcpH
# T6 construct: made in house
# [21] = target: T4, ybbR; settings: Sfp for ybbR; cited from earlier work
# [22] = target: apo-E. coli AcpP (Escherichia coli, UniProt P0A6A8); settings: Sfp for apo-E. coli AcpP; cited from earlier work
molecule,measurement,setting,value
B1,AcpH qualitative CP activity,[1],no
same,Km,[2],21 µM
same,Vmax,[2],0.004 ± 0.004 min⁻¹
same,kcat,[2],6.7e-05 ± 6.7e-05 s⁻¹
same,AcpH qualitative CP activity,[3],no
same,AcpH qualitative CP activity,[4],no
same,AcpH qualitative CP activity,[5],YES
same,AcpH qualitative CP activity,[6],no
same,AcpH qualitative CP activity,[7],YES^†
same,AcpH qualitative CP activity,[8],no
same,AcpH qualitative CP activity,[9],no
same,AcpH qualitative CP activity,[10],no
same,AcpH qualitative CP activity,[11],no
same,AcpH qualitative CP activity,[12],YES
same,AcpH qualitative CP activity,[13],YES
same,AcpH qualitative CP activity,[14],no
same,Km,[15],58 ± 9 µM
same,Vmax,[15],1.1 ± 0.1 min⁻¹
same,kcat,[15],3.52 s⁻¹ and 3.52 ± 0.183 s⁻¹
same,AcpH qualitative CP activity,[16],no
same,qualitative activity for all ybbR constructs,"[17]; Coumarin-PPant conjugated to all ybbR variations, Urea-PAGE",qualitative activity
same,AcpH activity with modified ybbR peptide,"[17]; YbbR13: N-term 6xHis, C-term GFP",YES
same,AcpH activity with modified ybbR peptide,"[17]; YbbR13: N-term FITC, C-term N/A",YES
same,AcpH activity with modified ybbR peptide,"[17]; YbbR13: N-term GFP, C-term 6xHis",YES
same,AcpH activity with modified ybbR peptide,"[17]; YbbR13 free peptide: N-term N/A, C-term N/A",YES
same,AcpH qualitative CP activity,[18],YES
same,AcpH qualitative CP activity,[19],YES
same,AcpH qualitative CP activity,[20],YES
B2,kcat,[21],11
same,kcat,[22],0.0967 s⁻¹
